Reference: US20070249808A1 (priority 2000, published 2007)

System: CD3+ Vβ+ T cells of peripheral blood lymphocytes (PBL)
Assay: T-cell enrichment assay with HtTA 4 cells transfected with bicistronic constructs
Format: cell-based, human
Conditions: PBL from a healthy donor; 9 days of specific stimulation; FIG. 18

B1: pCDL-HERV WΔ120 aa: N-terminal 120 amino acid fragment of HERV-W ENV (amino acids 1 to 120, including signal peptide), expressed from a bicistronic cassette (protein)
chain: APPPCRCMTSSSPYQEFLWRMQRPGNIDAPSYRSLSKGTPTFTAHTHMPRNCYHSATLCMHANTHYWTGKMINPSCPGGLGVTVCWTYFTQTGMSDGGGV
expansion of Vβ17+ T-cells: no expansion
